How the values were obtained:
[1] = target: SMRC1_HUMAN SWI/SNF complex subunit SMARCC1 (human) (UniProt Q92922); assay: MS of BAF complexes from Aska-SS cells, shControl against shSS18-SSX, Rep 1
[2] = target: BCL7B (human) (UniProt Q9BQE9); assay: as above
[3] = target: BCL7C_HUMAN Isoform 2 of B-cell CLL/lymphoma 7 protein family member C (human) (UniProt Q8WUZ0); assay: as above
[4] = target: SNF5_HUMAN Isoform B of SWI/SNF-related matrix-associated actin-dependent regulator of chromatin subfamily B member 1 (human) (UniProt Q12824); assay: as above
[5] = target: SMRD1_HUMAN SWI/SNF-related matrix-associated actin-dependent regulator of chromatin subfamily D member 1 (human) (UniProt Q96GM5); assay: as above
[6] = target: ACL6A_HUMAN Actin-like protein 6A (human) (UniProt O96019); assay: as above
[7] = target: SSXT_HUMAN Protein SSXT (human) (UniProt Q15532); assay: as above
[8] = target: ARI1B_HUMAN Isoform 3 of AT-rich interactive domain-containing protein 1B (human) (UniProt Q8NFD5); assay: as above
[9] = target: SSX1; SSX8 (human) (UniProt Q16384); assay: as above
[10] = target: SMCE1_HUMAN SWI/SNF-related matrix-associated actin-dependent regulator of chromatin subfamily E member 1 (human) (UniProt Q969G3); assay: as above
[11] = target: URB2_HUMAN Unhealthy ribosome biogenesis protein 2 homolog (human) (UniProt Q14146); assay: anti-SMARCA4 (BRG1) IP, mass spectrometry, HEK-293T cells
[12] = target: ZN326_HUMAN DBIRD complex subunit ZNF326 (human) (UniProt Q5BKZ1); assay: as above
[13] = target: TRA2B_HUMAN Transformer-2 protein homolog beta (human) (UniProt P62995); assay: as above
[14] = target: UCRIL HUMAN Putative cytochrome b-c1 complex subunit Rieske-like protein 1 (human) (UniProt P0C7P4); assay: as above
[15] = target: UBP2L_HUMAN Isoform 5 of Ubiquitin-associated protein 2-like (human) (UniProt Q14157); assay: as above
[16] = target: VIME_HUMAN Vimentin (human) (UniProt P08670); assay: as above
[17] = target: ZC11A_HUMAN Zinc finger CCCH domain-containing protein 11A (human) (UniProt O75152); assay: as above
[18] = target: TNR6B_HUMAN Trinucleotide repeat-containing gene 6B protein (human) (UniProt Q9UPQ9); assay: as above
[19] = target: QCR2_HUMAN Cytochrome b-c1 complex subunit 2, mitochondrial (human) (UniProt P22695); assay: as above
[20] = target: YLPM1_HUMAN Isoform 4 of YLP motif-containing protein 1 (human) (UniProt P49750); assay: as above
[21] = target: XRN2_HUMAN 5'-3' exoribonuclease 2 (human) (UniProt Q9H0D6); assay: as above
[22] = target: UBC_HUMAN Polyubiquitin-C (human) (UniProt P0CG48); assay: as above
[23] = target: TSP1_HUMAN Thrombospondin-1 (human) (UniProt P07996); assay: as above
[24] = target: URB2_HUMAN Unhealthy ribosome biogenesis protein 2 homolog (human) (UniProt Q14146); assay: anti-SMARCA4 (BRG1) IP, mass spectrometry, Aska-SS cells
[25] = target: UCRIL HUMAN Putative cytochrome b-c1 complex subunit Rieske-like protein 1 (human) (UniProt P0C7P4); assay: as above
[26] = target: UBP2L_HUMAN Isoform 5 of Ubiquitin-associated protein 2-like (human) (UniProt Q14157); assay: as above
[27] = target: YLPM1_HUMAN Isoform 4 of YLP motif-containing protein 1 (human) (UniProt P49750); assay: as above

**Q.** Which results are given for “SMCA4_HUMAN Transcription activator BRG1 (from UniProt P51532 1-1647) (enzyme)”?
**A.** LFQ intensity ratio Aska (shControl)/Aska (shSS18-SSX), norm to SMARCA4 [1]: 0.506; LFQ intensity ratio Aska (shControl)/Aska (shSS18-SSX), norm to SMARCA4 [2]: 1.34; LFQ intensity ratio Aska (shControl)/Aska (shSS18-SSX), norm to SMARCA4 [3]: 1.74; LFQ intensity ratio Aska (shControl)/Aska (shSS18-SSX), norm to SMARCA4 [4]: 0.0221; LFQ intensity ratio Aska (shControl)/Aska (shSS18-SSX), norm to SMARCA4 [5]: 0.771; LFQ intensity ratio Aska (shControl)/Aska (shSS18-SSX), norm to SMARCA4 [6]: 0.784; LFQ intensity ratio Aska (shControl)/Aska (shSS18-SSX), norm to SMARCA4 [7]: 0.959; LFQ intensity ratio Aska (shControl)/Aska (shSS18-SSX), norm to SMARCA4 [8]: 0.721; LFQ intensity ratio Aska (shControl)/Aska (shSS18-SSX), norm to SMARCA4 [9]: 8.69; LFQ intensity ratio Aska (shControl)/Aska (shSS18-SSX), norm to SMARCA4 [10]: 0.894; NSAF [11]: 4.08e-05; NSAF [12]: 0.000749; NSAF [13]: 0; NSAF [14]: 0; NSAF [15]: 5.64e-05; NSAF [16]: 0; NSAF [17]: 7.68e-05; NSAF [18]: 3.4e-05; NSAF [19]: 0; NSAF [20]: 0.000116; NSAF [21]: 6.55e-05; NSAF [22]: 9.09e-05; NSAF [23]: 0; NSAF [24]: 0; NSAF [25]: 0; NSAF [26]: 0; NSAF [27]: 0
